Assay [1] deals with T1, human NKG2D expressed on cells (human, UniProt P26718 1-216).
T1 construct: the cell type is named under assay; also called NKG2D on NK92 cells; HEK293T human NKG2D
T1 chain: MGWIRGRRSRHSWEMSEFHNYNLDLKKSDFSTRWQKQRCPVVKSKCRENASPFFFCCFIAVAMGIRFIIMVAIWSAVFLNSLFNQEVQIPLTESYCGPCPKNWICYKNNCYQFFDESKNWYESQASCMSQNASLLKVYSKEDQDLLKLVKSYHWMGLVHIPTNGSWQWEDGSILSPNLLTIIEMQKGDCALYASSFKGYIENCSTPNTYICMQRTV
The experiment in a line: flow cytometry; expanded human γδ T cells. The method, then: Viability of expanded γδ T cells was checked and cells were adjusted to a density of 1 mio cells/ml in FACS buffer. 100 μl of these cell suspensions (containing 0.1 mio cells) were seeded into a 96 well round bottom plate. The plate was centrifuged for 4 min at 400×g and the supernatant was removed. Then 40 μl of the diluted NKG2D antibodies were added to the cells and incubated for additional 30 min at 4° C. After the incubation the cells were washed twice with 150 μl FACS buffer per well. Then 20 μl of the diluted secondary FITC anti-human Fc specific secondary antibody (Jackson ImmunoResearch, #109-096-098) was added to the cells. The cells were incubated for an additional 30 min at 4° C. To remove unbound antibody, the cells were washed again twice with 150 μl per well FACS buffer. To fix the cells 100 μl of FACS buffer containing 1% PFA were added to the wells. Before measuring the cells were re-suspended in 150 μl FACS buffer. The fluorescence was measured using a BD CantoII flow cytometer.

The target of assay [2] is T2, recombinant biotinylated human NKG2D (Example 5) (human, UniProt P26718 73-216, biotinylated).
T2 sequence: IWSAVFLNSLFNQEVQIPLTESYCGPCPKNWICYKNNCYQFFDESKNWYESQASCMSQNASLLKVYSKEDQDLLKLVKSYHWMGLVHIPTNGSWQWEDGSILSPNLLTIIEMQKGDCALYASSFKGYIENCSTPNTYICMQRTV
The assay is described as follows: competition ELISA; NKG2D preincubated with antibody, MIC-B coated; EC50 estimated if no full plateau. The method, then: After washing with 3×90 μl/well PBST-buffer (10×PBS (Roche, #11666789001)+0,1% TWEEN® (polysorbate) 20), each well was incubated with 90 μl blocking buffer (10×PBS (Roche, #11666789001)+2% Bovine Serum Albumin Fraction V, fatty acid free (Roche, #10735086001)+0.05% TWEEN® (polysorbate) 20) for 1 h at RT. […] After washing (3×90 μl/well PBST-buffer), 25 μl/well of the NKG2D-antibody mixtures were transferred to the assay plate and incubated for 1 h at RT. After washing (3×90 μl/well PBST-buffer), 25 μl/well Poly-HRP40-Streptavidin (Fitzgerald, #65R-S104PHRPx) was added in a 1:2000 dilution and incubated for 1 h at RT. After an additional washing step (3×90 μl/well PBST-buffer), 25 μl TMB substrate (Roche, #11835033001) was added to each well. Measurements were performed at OD 370/492 nm.
Thus, antibodies with such a profile are non-inhibitory regarding the NKG2D: MIC-B interaction. The other 8 antibodies inhibit the binding of NKG2D to its ligand MIC-B with differing potencies.

For a further assay, the target named is T3, di huNKG2D ECD Fc avi (human, biotinylated at the avi-tag).
T3 construct: Dimeric fusion of human NKG2D ECD to the C-terminus of an avi-tagged human IgG1 Fc
The experiment in a line: SPR Biacore; IgG captured by anti-Fab, antigen analyte. As to the method:
Around 1500 resonance units (RU) of the capture antibody (10 μg/ml human Fab Capture Kit, GE Healthcare Life Sciences, #28958325) were coupled onto a CM5 chip (GE Healthcare, #BR-1005-30) using a BIACORE® B4000 instrument (GE Healthcare) at pH 5.0 by using an amine coupling kit supplied by GE Healthcare. The sample and system buffer was PBS-T (10 mM phosphate buffered saline including 0.05% TWEEN® (polysorbate) 20) pH 7.4. The flow cells were set to 25° C.—and the sample block set to 12° C.—and primed twice with running buffer. The antibody was captured by injecting a ˜10 μg/ml solution for 60 sec at a flow rate of 10 μl/min. Association was measured by injection of di huNKG2D ECD Fc avi (SEQ ID NO: 96) or di cyNKG2D ECD Fc avi (SEQ ID NO: 97) in various concentrations in solution for 180 s at a flow rate of 30 μl/min starting with 600 nM, 300 nM, 150 nM following […] dilutions. The dissociation phase was monitored for up to 450 s and triggered by switching from the sample solution to running buffer. The surface was regenerated by 2×90 s washing with a glycine pH 2.1 solution at a flow rate of 30 μl/min and an additional stabilization period of 180 s. Bulk refractive index differences were corrected by subtracting the response obtained from an anti-human Fab surface. Blank injections were also subtracted (=double referencing). For calculation of KD, kₐ and kd (see Table 8), the Langmuir 1:1 model in the BIACORE® 4000 Evaluation software 1.1 (GE Healthcare) or TraceDrawer 1.6.1 (Ridgeview Instruments AB) were used.

A further assay concerns the target T4, di cyNKG2D ECD Fc avi (cynomolgus, biotinylated at the avi-tag).
T4 construct: Dimeric fusion of cynomolgus NKG2D ECD to the C-terminus of an avi-tagged human IgG1 Fc; also called recombinant cynomolgus NKG2D
The assay is described as follows: ELISA; biotinylated antigen on streptavidin plate. The method, then: Nunc streptavidin coated plates (MicroCoat, #11974998001) were coated with 25 μl/well biotinylated his avi huNKG2D ECD (SEQ ID NO: 93) at a concentration of 0.5 μg/ml and incubated at room temperature (RT) for 1 hour. After washing with 3×90 μl/well PBST-buffer (10×PBS, Roche #11666789001+0.1% TWEEN® (polysorbate) 20), 25 μl anti-NKG2D antibodies were added in 1:3 dilutions starting at a concentration of 3 μg/ml or alternatively with a 1:30 dilution of the original sample and incubated 1 h at RT. After washing (3×90 μl/well PBST-buffer), 25 μl/well anti hu kappa chain HRP (horseradish peroxidase)-conjugate (Millipore, #AP502P, 1:2000) was added and incubated at RT for 1 h. After washing (3×90 μl/well PBST-buffer) 25 μl/well TMB (3,3′,5,5′-tetramethylbenzidine) substrate (Roche, #11835033001) was added.
Nunc streptavidin coated plates (MicroCoat, #11974998001) were coated with 25 μl/well biotinylated di cyNKG2D ECD Fc avi (SEQ ID NO: 97) at a concentration of 0.25 μg/ml and incubated at room temperature (RT) for 1 hour. The assay was performed as described above for human NKG2D.

T4 sequence (chain, as listed by the source limits assumed): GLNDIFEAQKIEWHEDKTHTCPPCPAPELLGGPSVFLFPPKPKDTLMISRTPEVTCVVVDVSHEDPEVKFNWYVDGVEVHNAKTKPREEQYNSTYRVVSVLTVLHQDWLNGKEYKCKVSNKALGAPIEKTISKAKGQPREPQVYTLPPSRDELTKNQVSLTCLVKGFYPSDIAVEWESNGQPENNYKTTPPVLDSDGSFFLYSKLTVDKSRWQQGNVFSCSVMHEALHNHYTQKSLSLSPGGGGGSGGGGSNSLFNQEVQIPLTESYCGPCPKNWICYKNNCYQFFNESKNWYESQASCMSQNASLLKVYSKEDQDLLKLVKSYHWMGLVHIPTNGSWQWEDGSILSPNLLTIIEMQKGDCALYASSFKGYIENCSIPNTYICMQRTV

B1: anti-NKG2D antibody 5C5 (IgG) (antibody, V domains shown)
VH: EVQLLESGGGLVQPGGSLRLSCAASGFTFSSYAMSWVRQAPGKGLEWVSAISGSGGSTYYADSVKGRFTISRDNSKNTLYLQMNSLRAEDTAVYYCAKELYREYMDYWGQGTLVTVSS
VL: SSELTQDPAVSVALGQTVRITCQGDSLRSYYASWYQQKPGQAPVLVIYGKNNRPSGIPDRFSGSSSGNTASLTITGAQAEDEADYYCNSRDSFSIHQNVFGGGTKLTVL
notes: also called clone 5C5
B1: the EC50 is 0.28 nM in assay [1] and 0.717 µg/mL in assay [2].

B2: anti-NKG2D antibody 13C6 (IgG) (antibody, V domains shown)
VH: EVQLVQSGAEVKKPGESLKISCKGSGYSFTSYWIGWVRQMPGKGLEWMGIIYPGDSDTRYSPSFQGQVTISADKSISTAYLQWSSLKASDTAMYYCARLYPVGVYFDYWGQGTLVTVSS
VL: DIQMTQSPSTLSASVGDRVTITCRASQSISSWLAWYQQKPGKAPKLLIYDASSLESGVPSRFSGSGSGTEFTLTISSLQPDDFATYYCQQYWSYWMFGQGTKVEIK
notes: also called clone 13C6
For the molecule B2, the EC50 in assay [2] is 0.111 µg/mL. In the assay with di huNKG2D ECD Fc avi, this molecule returned a Kd of 8.2 nM, a koff of 0.00028 s⁻¹ and a kon of 34000 M⁻¹ s⁻¹.

B3: anti-NKG2D antibody clone 320 (antibody, V domains shown)
VH: EVQLLESGGGLVQPGGSLRLSCATSGFTFSDYAMSWVRQAPGKGLEWVSYNSFSVGSTDYADSVKGRFTISRDNSKNTLYLQMNSLRAEDTAVYYCSKHSGNYYTGPFHYWGQGTLVTVSS
VL: DIQLTQSPSFLSASVGDRVTITCRASQGISSYLAWYQQKPGKAPKLLIYAASSLESGVPSRFSGSGSGTDFTLTISSLQPEDFATYYCQQSYSTPITFGQGTRLEIK
notes: From transgenic rabbits; also called 320 IgG
In assay [1], B3 yielded an EC50 of 3.84 nM. Also, the EC50 in assay [2] is 0.067 µg/mL. In the assay with di cyNKG2D ECD Fc avi, the 50% effective concentration (EC50) was found to be 0.4 nM and the OD max was determined as 0.9 OD. In the assay with di huNKG2D ECD Fc avi, binding was characterised by a dissociation constant (Kd) of 110 nM, the koff is 0.0091 s⁻¹ and the kon was found to be 83000 M⁻¹ s⁻¹.

B4: anti-NKG2D antibody clone 013 (antibody, V domains shown)
VH: EQSGGGAGGGLVKPGGSLELCCKASGFDFSIYWMSWVRQSPGKGLEWIGRIYGGSSDYTAYASWVNGRFTLSRDIDQSTGCLQLNSLTAADTAMYYCVRLNPSFSRSFDYWGQGTLVTVSS
VL: DIQMTQSPSSVSASVGDRVTITCRASQGIFSWLVWYQQKPGKAPELLMYGASTLQSGVPSRFSGSGSGTDFTLTISSLQPEDFATYYCQQGYSTPYTFGQGTKVEIK
notes: From transgenic rabbits
Regarding B4, the EC50 in assay [1] is 133 nM. In the assay with di cyNKG2D ECD Fc avi, the EC50 stood at 0.4 nM and the OD max amounted to 1.5 OD. In the assay with di huNKG2D ECD Fc avi, the Kd worked out at 16 nM, the koff turned out to be 0.0013 s⁻¹ and the kon amounted to 84000 M⁻¹ s⁻¹.

B5: anti-NKG2D antibody clone 395 (antibody, V domains shown)
VH: QEQLEQSGGGLVTPGGSLKLCCTASGFDFNTFWMTWVRQAPGKGLEWIGCIHGGSGSRDYASWVNGRFTLSRDIDQSTACLQVNSLTAADTAMYYCARPGYRSWSKTFDLWGQGTMVTVSS
VL: DIQMTQSPSSLSASVGDRVTITCRASQDISGALNWYQQKPGKAPNLLIYAASSLQSGVPSRFSGSGSGTDYTLTISSLQPEDFATYYCQQANSFPLTFGGGTKVEIK
notes: From transgenic rabbits; rabbit VH, human VL
Turning to B5, in assay [1], the midpoint of the response, the EC50, lay at 1.94 nM. Moreover, the EC50 in assay [2] is 1.64 µg/mL. In the assay with di cyNKG2D ECD Fc avi, this molecule returned an EC50 of 0.6 nM and an OD max of 1.4 OD. Besides, in the assay with di huNKG2D ECD Fc avi, the Kd was 0.55 nM, the koff was found to be 3.2e-05 s⁻¹ and the kon is 57000 M⁻¹ s⁻¹.

B6: anti-NKG2D antibody clone 001 (antibody, V domains shown)
VH: QQLEQSGGGLVTPGGSLKLCCIGSGFDFNTYWMTWVRQAPGKGLEWIGCIHGGSSGSTYYASWVNGRFTLSRDIDQSTGCLQVNSLTAADTAMYYCARPGYRSWSKTFDLWGQGTMVTVSS
VL: DIQMTQSPSSLSASVGDRVTITCRASQDISESLNWYQQKPGKAPKLLIYAASSLQSGVPSRFSGSGSGTDYTLTISSLQPEDFATYYCQQANSFPLTFGGGTKVEIK
notes: From transgenic rabbits
Regarding B6, the EC50 in assay [2] is 0.56 µg/mL. Further, in the assay with di cyNKG2D ECD Fc avi, the EC50 turned out to be 0.3 nM and the OD max turned out to be 1.7 OD. For the same molecule, in the assay with di huNKG2D ECD Fc avi, the equilibrium dissociation constant (Kd) was found to be 8.5 nM, the koff stood at 0.00045 s⁻¹ and the kon worked out at 52000 M⁻¹ s⁻¹.

B7: anti-NKG2D antibody clone 296 (antibody, V domains shown)
VH: EVQLLESGGGLVQPGGSLRLSCAASGFTFSSYAMSWVRQAPGKGLEWVSAIGIGGGGTYYADSVKGRFTISRDNSKNTLYLQMNSLRAEDTAVYHCAKGASFDFINFFPYWGQGTLVTVSS
VL: DIQMTQSPSSLSASVGDRVTITCRASQGISNDLAWYQQKPGKAPKLLIYAASSLQSGVPSRFSGSGSGTDFTLTISSLQPEDFATYYCQQTYSTPLTFGGGTKVEIK
notes: From transgenic rabbits
As for B7, in assay [1], the EC50 came to 1.32 nM. Also, the EC50 in assay [2] was 0.02 µg/mL. In addition, in the assay with di cyNKG2D ECD Fc avi, the midpoint of the response, the EC50, lay at 0.7 nM and the OD max is 0.9 OD. Besides, in the assay with di huNKG2D ECD Fc avi, binding was characterised by a dissociation constant (Kd) of 3.8 nM, the koff was found to be 0.00079 s⁻¹ and the kon amounted to 210000 M⁻¹ s⁻¹.

B8: anti-NKG2D antibody clone 230 (antibody, V domains shown)
VH: QQLEQSGGGLVKPGGSLELCCIASGFDFSTYWMTWVRQAPGKGLEWIGCIHGGGSGTTSYASWVNGRFTLSRDIDQSTGCLQLTSLTAADTAMYYCARPGYRSWSKTFDLWGQGTMVTVSS
VL: DIQMTQSPSSLSASVGDRVTITCQANQDISNALNWYQQKPGKAPKLLIYAASSLQSGVPSRFSGSGSGTDFTLTISSLQPEDFAAYYCQQAASFPLTFGGGTKVEIK
notes: From transgenic rabbits
In assay [1], B8 showed an EC50 of 3.31 nM. In addition, in assay [2], the EC50 is 1.06 µg/mL. Besides, in the assay with di cyNKG2D ECD Fc avi, the EC50 was determined as 1.3 nM and the OD max stood at 1.6 OD. In the assay with di huNKG2D ECD Fc avi, this molecule came in with a Kd of 3.6 nM, a koff of 0.00016 s⁻¹ and a kon of 43000 M⁻¹ s⁻¹.

B9: anti-NKG2D antibody clone 018 (antibody, V domains shown)
VH: QQLEQSGGGLVTPGGSLKVCCKASGFDFTTYWMTWVRQAPEKGLEWIGCIHGGDSGATYYANWVNGRFTLSRDIDQSTGCLQLNSLTAADTAMYYCARPGYPSWSKTFDLWGQGTMVTVSS
VL: DIQMTQSPSSLSASVGDRVTITCQASQDISNALNWYQQKPGKAPKLLIYAASTLQSGVPSRFSGSGSGTDFTLTISSLQPEDFATYYCQHSNSFPLTFGGGTKVEIK
notes: From transgenic rabbits
Take B9: in assay [2], the EC50 was 0.332 µg/mL. Moreover, in the assay with di cyNKG2D ECD Fc avi, the midpoint of the response, the EC50, lay at 0.4 nM and the OD max amounted to 1.3 OD. In the assay with di huNKG2D ECD Fc avi, this molecule displayed a Kd of 29 nM, a koff of 0.0013 s⁻¹ and a kon of 43000 M⁻¹ s⁻¹.

The record behind these values is patent US20240067734A1 (Hoffmann-La Roche, published 2024).
